Columns and labels:
[1] = target: T1, insulin receptor (IR) (Homo sapiens, UniProt P06213); assay: Blocking of radiolabeled insulin binding to ZR-75I cells; conditions: ZR-75I breast cancer cells; antibody up to 200 nM
T1 construct: endogenous in cells; host or cells: ZR-75I human breast cancer cells

[2] = target: T2, mouse IGF-IR (Mus musculus, UniProt Q60751); assay: FACs binding analysis to mouse cell lines; format: cell-based; conditions: mouse tumor cell line Lewis Lung carcinoma
T2 construct: endogenous in cells; host or cells: Lewis Lung carcinoma (mouse); R- mouse embryo fibroblasts (IGF-IR negative control)
T2 sequence (Q60751 31-737 limits assumed): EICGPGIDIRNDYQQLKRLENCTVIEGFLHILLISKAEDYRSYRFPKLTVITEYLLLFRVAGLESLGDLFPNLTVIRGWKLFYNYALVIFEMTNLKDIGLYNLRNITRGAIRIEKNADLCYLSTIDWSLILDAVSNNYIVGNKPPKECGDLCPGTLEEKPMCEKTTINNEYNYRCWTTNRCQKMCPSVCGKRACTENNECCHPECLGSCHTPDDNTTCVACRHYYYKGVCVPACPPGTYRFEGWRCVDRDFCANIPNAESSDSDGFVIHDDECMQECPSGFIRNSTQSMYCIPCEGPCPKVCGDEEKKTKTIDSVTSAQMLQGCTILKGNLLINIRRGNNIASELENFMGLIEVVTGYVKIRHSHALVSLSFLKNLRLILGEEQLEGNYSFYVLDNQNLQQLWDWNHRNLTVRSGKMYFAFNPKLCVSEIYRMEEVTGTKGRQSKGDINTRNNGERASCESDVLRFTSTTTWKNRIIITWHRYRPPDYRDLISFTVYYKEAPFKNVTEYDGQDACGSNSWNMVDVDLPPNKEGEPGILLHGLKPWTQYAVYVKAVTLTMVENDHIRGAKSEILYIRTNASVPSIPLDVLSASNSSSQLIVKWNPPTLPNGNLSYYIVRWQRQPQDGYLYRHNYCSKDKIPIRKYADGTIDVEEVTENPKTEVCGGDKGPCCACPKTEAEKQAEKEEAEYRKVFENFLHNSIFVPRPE
T2 sequence (Q60751 742-1373 limits assumed): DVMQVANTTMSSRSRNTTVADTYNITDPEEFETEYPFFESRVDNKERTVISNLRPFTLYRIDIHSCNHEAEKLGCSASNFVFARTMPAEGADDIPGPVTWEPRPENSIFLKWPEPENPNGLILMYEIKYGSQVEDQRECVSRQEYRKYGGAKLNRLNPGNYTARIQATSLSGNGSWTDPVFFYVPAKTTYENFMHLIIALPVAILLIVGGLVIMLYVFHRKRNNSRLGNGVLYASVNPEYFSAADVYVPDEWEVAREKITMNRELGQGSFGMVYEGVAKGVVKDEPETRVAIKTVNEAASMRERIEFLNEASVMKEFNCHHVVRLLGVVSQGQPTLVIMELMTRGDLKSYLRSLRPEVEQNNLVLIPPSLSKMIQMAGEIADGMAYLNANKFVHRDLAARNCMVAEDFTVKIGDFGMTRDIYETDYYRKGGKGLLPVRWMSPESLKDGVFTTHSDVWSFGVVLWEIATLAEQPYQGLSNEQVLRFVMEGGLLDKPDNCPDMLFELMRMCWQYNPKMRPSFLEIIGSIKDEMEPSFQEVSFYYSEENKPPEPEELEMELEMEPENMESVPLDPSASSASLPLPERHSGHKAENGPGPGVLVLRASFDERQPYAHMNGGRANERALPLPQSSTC

[3] = system: mouse IGF-IR; assay: FACs binding analysis to mouse cell lines; format: cell-based; conditions: IGF-IR negative mouse embryo fibroblasts (R- cells)
[4] = target: T3, IGF-IR on MCF7 cells (Homo sapiens, UniProt P08069); assay: Internalization of 125I-A12 after binding to IGF-IR; format: cell-based; conditions: 37° C., 30-180 minutes
T3 construct: endogenous in cells
Description: Antibody A12 was radio-iodinated with ^125iodine using IODO-beads (Pierce) according to manufacturer's instructions. MCF7 human breast cancer cells were plated into 6-well plates and cultured overnight to 50% confluence. One microgram of ^125I-A12 was added to each well and incubated at 37° C. or kept on ice at 4° C. Plates were incubated for 30 minutes, 90 minutes, or 180 minutes and each time point performed in triplicate. The culture at 4° C. was held for 180 minutes. At each time point, wells were washed 1× w/PBS, then stripped for 5 minutes with 100 mM glycine-HCl, 2M urea, pH 2.5. The stripped material, representing membrane bound antibody was kept on ice for counting. Wells were then washed 3 times with PBS and cells solubilized with 1N NaOH/1% TritonX100. The solubilized fraction represented the internalized antibody. Stripped and solubilized fractions were then read on a gamma counter and plotted with standard deviation.

[5] = target: T4, IGF-IR in HT-29 cells and BxPC-3 cells (Homo sapiens, UniProt P08069); assay: Total cellular IGF-IR after treatment; format: cell-based; conditions: HT-29 and BxPC-3 cells; A12 after 3-6 hours
T4 construct: endogenous in cells; HT-29; BxPC-3; HEL

[6] = system: human colorectal cancer line HT-29; assay: HT-29 xenograft, A12 monotherapy; format: in vivo, mouse
Description: We were interested to determine if the anti-IGF-IR antibodies were capable of inhibiting human tumor growth in vivo in a nude mouse xenograft model. Tumors were induced in 3-4 week old athymic nude (nu/nu) mice by subcutaneous injection of 2-3 million viable HT-29 human colorectal cancer cells in cell culture medium. The tumors were allowed to establish and antibody treatment started when the tumor volume reached 200 mm^3. Ten animals were injected with tumor cells per treatment group. Antibody was injected intraperitoneally (IP) every three days at 1 mg or 0.5 mg in 0.5 ml TBS. The drug irenotecan (CPT-11) (LKT Laboratories) was injected IP (100 mg/kg) once a week for four weeks from the initiation of antibody treatment. Control animals received a class matched irrelevant human IgG antibody. Tumor measurements were performed at regular intervals using Vernier calipers, measuring height, width, and length and calculated to determine the total tumor volume. The study was terminated when control tumors reached 3000 mm^3.
Tumors were induced as previously described, and antibody treatment initiated once tumors were established (200 mm^3 size). Antibody treatment was then given at a concentration of 1 mg, 100 μg, or 10 μg every three days throughout the duration of the experiment. Ten animals were used per treatment group and control animals received a class match IgG control antibody.

[7] = system: MCF7 human breast cancer; assay: MCF7 xenograft, A12 monotherapy; format: in vivo, nude mice
Description: In order to assess its activity on MCF7 tumor growth in vivo, a mouse xenograft tumor model was utilized. MCF7 cells were originally isolated from an estrogen-dependent human tumor and require exogenously added estrogen for maintenance and growth in vivo. Nude mice were implanted with biodegradable estrogen pellets (0.72 mg 17-β-estradiol/pellet, 60 day release). In addition, at the time of subcutaneous tumor cell injection, the mice were also injected in the right flank subcutaneously with 0.5 mg of estradiol in a 50 μl suspension of sesame seed oil. Tumors were allowed to establish a size of approximately 150 mm^3 before antibody treatment was initiated. Antibody was injected at 1 mg, 100 μg, and 10 μg doses every three days and continued for the duration of the experiment. At 29 days, treatment of animals with 1 mg of A12 effected an 89% reduction in tumor growth (FIG. 25). Minimal growth was apparent for the established tumors in this treatment group.

[8] = target: T5, IGF-IR (Homo sapiens, UniProt P08069); assay: IGF-I mediated IGF-IR auto-phosphorylation, western blot; format: cell-based; set-up: endogenous in cells; HT-29; BxPC-3; HEL
[9] = target: T5, IGF-IR; assay: FACs binding analysis to human cell lines; format: cell-based; set-up: endogenous in cells; HT-29; BxPC-3; HEL; conditions: 0.5 μg A12
Description: Since A12 was capable of immunoprecipitating endogenous IGF-IR, we were therefore interested in determining if A12 could also be used as detection antibody for fluorescence activated cell sorting (FACs). Human tumor cell lines were grown in culture, scraped into ice-cold PBS, and counted. Primary antibody, A12 (0.5 μg), was added to approximately 5 million cells in 250 μl PBS/5% FBS and incubated on ice for 1 hour. The cells were then diluted to 3 mls in PBS/5% FBS, pelleted, and the supernatant aspirated. Secondary phycoerythin (PE)-labeled goat anti-human IgG F(ab)2 fragment was then added in 250 μl PBS/5% FBS at 1:200 and incubated on ice for 60 minutes. Afterwards, the cells were again diluted and pelleted, as before, then resuspended in 500 μl PBS/5% FBS. FACs analysis was then performed on a Epics XL unit (Coulter). […] IGF-IR negative mouse embryo fibroblasts (R-cells) (obtained from R. Baserga, Thomas Jefferson University, Philadelphia, Pa.) served as the negative control.

[10] = target: T5, IGF-IR; assay: Blocking of 125I-IGF-I binding to immobilized soluble IGF-IR; set-up: recombinant extracellular portion of human IGF-IR was used to screen
Description: Forty 40 pM of ^125I-IGF-I was then added and the plates incubated an additional 90 minutes. […] Affinity was determined by BIAcore analysis according to manufacturer's specifications (Pharmacia BIACORE 3000). Soluble IGF-IR was immobilized on the sensor chips and antibody binding kinetics determined. […] The activity of A12 remained the same, irrespective of whether the light chain was engineered with a human lambda or kappa class constant region. Antibody A12 engineered with a lambda class light chain was utilized in all subsequent procedures.

## A12: fully human IgG1 anti-IGF-IR antibody, lambda light chain; VH SEQ ID NO:2, VL SEQ ID NO:10; affinity matured from 2F8
[1]
  blocking of insulin binding: neither 2F8 nor the high affinity A12 antibody blocked insulin binding
[2]
  FACs shift: partially shift
[3]
  FACs binding: failed to bind
[4]
  internalization of labeled antibody: rapidly internalized
[5]
  effect on total cellular IGF-IR: severe depletion of IGF-IR levels
[6]; 100 μg every three days
  anti-tumor activity: Anti-tumor activity was also observed
[6]; every three days, P<0.05, dose of this value not stated (1 mg, 100 μg, 10 μg tested)
  reduction in tumor growth compared to control: 74%
[7]; 1 mg every three days, at 29 days
  reduction in tumor growth: 89%
[7]; antibody alone 1 mg/dose, continued to termination (50 days)
  tumor regression: tumor regression was observed
[8]; BxPC-3 pancreatic cancer cells
  inhibition of IGF-IR auto-phosphorylation: inhibited auto-phosphorylation of IGF-IR
[8]; HT-29 colorectal cancer cells
  inhibition of IGF-IR auto-phosphorylation: inhibited auto-phosphorylation of IGF-IR
[8]; MCF7 cells, serum deprived, no ligand
  agonist activity: receptor phosphorylation by antibody alone: did not induce receptor phosphorylation
[8]; MCF7 cells, 10 nM IGF-I
  block of IGF-IR phosphorylation: nearly completely blocked phosphorylation
[9]; HEL human leukemia cell line
  FACs shift: fully shifted
[9]; MCF7 human breast cancer cell line
  FACs shift: fully shifted
[10]; FIG. 15
  inhibition of radiolabeled IGF-I binding compared with cold ligand: to a greater extent than competition with cold ligand
[10]; full IgG
  increase in blocking activity of ligand for immobilized receptor, A12 versus 2F8: at least a three-fold increase
